Experimental findings from patent US20230265201A1 (published 2023) are described below.

Numbering of substitutions follows the chain as printed.

By IC50 is commonly meant the point on the concentration scale where inhibition reaches its midpoint. For orientation: koff means a measure of how fast the partners let go of each other.

Assay [1] addresses T1, recombinant human CD70 (Flag-TNC-CD70) (human, UniProt P32970 39-193).
T1 construct: extracellular domain; also called recombinant CD70; human Flag-TNC-CD70; not shown: Flag tag and TNC trimerisation domain
T1 sequence (looked up): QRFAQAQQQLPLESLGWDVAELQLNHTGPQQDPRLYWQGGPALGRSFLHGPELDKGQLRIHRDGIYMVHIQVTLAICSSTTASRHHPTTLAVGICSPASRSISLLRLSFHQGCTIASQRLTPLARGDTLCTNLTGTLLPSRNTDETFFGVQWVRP
In words: CD27-CD70 inhibition ELISA, human Flag-TNC-CD70. Background: An ELISA detects its analyte on a solid surface through an enzyme-linked reagent.

The target in assay [2] is T1, recombinant human CD70 (Flag-TNC-CD70). In words: blocking ELISA of Example 19: CD27 Fc chimera on anti-Flag-captured Flag-TNC-CD70.
The target of assay [3] is T2, rhesus recombinant CD70 (FLAG-TNC-rhesus CD70) (rhesus macaque (Macaca mulatta), UniProt F7GPA5 174-316).
T2 construct: also called rhesus Flag-TNC-CD70; Rhesus monkey; not shown: Flag tag and TNC trimerisation domain
T2 sequence: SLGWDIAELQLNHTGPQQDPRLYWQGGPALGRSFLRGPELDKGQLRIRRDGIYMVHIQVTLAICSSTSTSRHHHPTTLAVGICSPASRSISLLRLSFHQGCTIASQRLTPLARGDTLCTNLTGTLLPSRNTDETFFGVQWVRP
As to the kind of experiment: Biacore, Fab over immobilised rhesus CD70.

For assay [4], the target named is T3, human CD70 on the surface of cells (human, UniProt P32970 1-193).
T3 sequence (looked up): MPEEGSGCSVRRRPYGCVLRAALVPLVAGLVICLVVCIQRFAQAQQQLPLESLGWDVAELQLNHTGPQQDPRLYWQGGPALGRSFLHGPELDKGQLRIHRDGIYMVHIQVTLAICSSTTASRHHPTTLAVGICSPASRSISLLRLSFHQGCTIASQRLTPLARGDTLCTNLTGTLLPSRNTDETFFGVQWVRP
As to the kind of experiment: cell-based or functional assay.

Assay [5] deals with T1, recombinant human CD70 (Flag-TNC-CD70). As to the kind of experiment: inhibition ELISA: CD27-Fc binding to anti-Flag-captured Flag-TNC-CD70. The protocol: From selected phage transfected into TG1, individual colonies were picked randomly for growth in 96 well plates. After IPTG induction according to standard protocols periplasmic fractions (peris) containing Fabs were prepared. […] In this assay, Flag-TNC-CD70 is captured by an anti-Flag mAb and binding of CD27-Fc is detected via a biotinylated anti-CD27 mAb and strep-HRP in the absence or presence of CD70 Fabs (FIGS. 2 and 3) or CD70 mAbs (FIG. 4). In FIG. 2B it can be seen that 27B3, which has an identical VH as 9D1, but contains a somewhat different light chain, seems to block binding of CD27 to CD70 more efficiently, which was in line with the better off rate of this Fab as measured on Biacore (data not shown). Table 3 indicates the blocking potency (expressed as IC50) for the various llama-human chimeric mAbs tested in the CD70 inhibition ELISA. […] FIG. 3 is a composite of an experiment testing llama CD70 Fabs for blocking activity (in the inhibition ELISA, see white bars) and for CD70 binding (binding ELISA, black bars). For the binding ELISA, Flag-TNC-CD70 is captured by an anti-Flag mAb and binding of the Fabs is detected using an anti-myc-HRP mAb, which recognizes the MYC tag fused to the C-terminus of the Fd fragment. […]

Regarding MDX1411 mAb (antibody), the IC50 in assay [1] was 0.044 µg/mL; in assay [2] it was 5.5 µg/mL.

B1: 57B6 Fab (Fab, V domains shown)
VH: QLQLVESGGGLVQPGGSLRLSCAASGFSFSHYAMSWVRQAPGKGLEWVSGDNTYDGGTRYQDSVKGRFTISRDNGKNTLYLQMNSLKPEDTAVYYCAKDTGRGIMGEYGMDYWGKGTLVTVSS
VL: QTVVTQEPSLSVSPGGTVTLTCGLKSGSVTSSNYPAWYQQTPGQAPRLLIYNTNSRHSGVPSRFSGSISGNKAALTITGAQPEDEADYYCALYMGSGSANAMFGGGTHLTVLG
notes: Llama-derived Fab from phage display; MYC tag at C-terminus of Fd
With B1, in assay [3], the koff is 4e-05 s⁻¹.

B2: 9E1 Fab (Fab, V domains shown)
VH: EVQLQESGGGVVQPGGSLRLSCAASGFTFDDYAMSWVRQAPGKGLEWVSSIYMYDSSTYYADSVKGRFTISTDNAKNTVYLQMNSLKSEDTAVYYCAKDINRSYGSSWSHFGPIFSSWGQGTQVTVSS
VL: QAVVTQEPSLSVSPGGTVTLTCGLTSGSVTSSNYPDWYQQTPGQAPRLLIYNTNSRHSGVPSRFSGSISGNKAALTITGAQPEDEADYYCNLYMGSGGSKVFGGGTKLTVLG
notes: as for B1
For the molecule B2, in assay [3], the koff is 0.0002 s⁻¹.

B3: 9G2 Fab (Fab, V domains shown)
VH: QVQLVESGGGLMQPGGSLRLSCAASGFTFSSSAMSWVRQAPGKGLEWVSSIYSDSSYTYYADSVKSRFTISTDNAKNTLYLQMNSLKPDDTAVYYCAGSSDYEGSFASWGQGTQVTVSS
VL: QSVVTQPPSLSASPGSSVRLTCTLSSGNSVGNYDISWYQQKAGSPPRYLLYYYSDSVKHQGSGVPSRFSGSSDASANAGLLLISGLQPEDEADYYCSAYKSGSHVFGGGTKLTVLG
notes: as for B1
Regarding B3, the koff in assay [3] was determined as 0.00018 s⁻¹.

B4: 9B2 Fab (Fab, V domains shown)
VH: B3 VH with V2L, L4V, S31G, D54H, S56M, G98A, S105L, A107V
VL: B3 VL with S2A, V4L, S25N, G27A, N32S, V57L, K58S, S72T, K100N, S101R
notes: as for B1
Turning to B4, the koff in assay [3] was 0.00061 s⁻¹.

B5: 53A2 mAb (human IgG1, HEK293) (antibody, V domains shown)
VH: EVQLVESGGGLVQPGGSLRLSCAASGFTFSVYYMNWVRQAPGKGLEWVSDINNEGGTTYYADSVKGRFTISRDNSKNSLYLQMNSLRAEDTAVYYCARDAGYSNHVPIFDSWGQGTLVTVSS
VL: QAVVTQEPSFSVSPGGTVTLTCGLKSGSVTSDNFPTWYQQTPGQAPRLLIYNTNTRHSGVPDRFSGSILGNKAALTITGAQADDEAEYFCALFISNPSVEFGGGTQLTVLG
As for B5, the “Raji co-culture assay IC50 relative to 27B3” value in assay [4] is 0.8 fold relative to 27B3.

B6: 40F1 mAb (human IgG1, HEK293) (antibody, V domains shown)
VH: B5 VH with T57A, L117Q
VL: B5 VL
As to B6, the “Raji co-culture assay IC50 relative to 27B3” value in assay [4] is 1.8 fold relative to 27B3.

B7: 9D1 chimeric llama-human mAb (antibody, V domains shown)
VH: B5 VH with S75A, S78T, Y80T, R87K, A88P, V93L, A97V, L117Q, T119I, S121A
VL: QAVVTQEPSLSVSPGGTVTLTCGLSSGSVTSSHYPGWYQQTPGQAPRLLIFNTNSRHSGVPSRFSGSISGNKAALTITGAQPEDEADYYCALLNIDDGSTMFGGGTHLTVLG
notes: also called mAb 9D1
As for B7, the “fold less potent than 27B3 mAb” value in assay [5] came to 3 fold.

B8: 9D1 Fab (Fab, V domains shown)
VH: B5 VH with S75A, S78T, Y80T, R87K, A88P, V93L, A97V, L117Q, T119I, S121A
VL: B7 VL
notes: as for B1
As to B8, the koff in assay [3] was 0.0002 s⁻¹.

B9: 35G2 mAb (human IgG1, HEK293) (antibody, V domains shown)
VH: B5 VH with S75A, S78T, R87K, A88P
VL: B5 VL with A2T, D32T, T55S, E87D
On to B9, for which the “Raji co-culture assay IC50 relative to 27B3” value in assay [4] was 1.4 fold relative to 27B3.

B10: 41D12 mAb (human IgG1, HEK293) (antibody, V domains shown)
VH: B5 VH
VL: B5 VL with F10L, S11T
Regarding B10, the “Raji co-culture assay IC50 relative to 27B3” value in assay [4] is 1.2 fold relative to 27B3.

B11: 53H1 mAb (human IgG1, HEK293) (antibody, V domains shown)
VH: B5 VH
VL: B5 VL with A2T
For B11, the “Raji co-culture assay IC50 relative to 27B3” value in assay [4] was 1.6 fold relative to 27B3.

B12: 4D2 Fab (Fab, V domains shown)
VH: QVQLQESGPGLVKPSQTLSLACTVSGGSITTSYYYWSWIRQPPGKGLEWMGAIGSRGSTYYSPSLKTRTSISRDTSKNQFTLQLSSVTPEDTAVYYCARVTGEITYNSGSYYYTLNLFDYWGQGTQVTVSS
VL: QSVLTQPPSLSASPGSSVRLTCTLSSGNSVGNYDISWYQQKAGSPPRYLLYYYSDSYKNQGSGVPSRFSGSKDPSANAGLLLISGLQAEDEADYYCSVSNSGTYKPVFGGGSKLTVLG
notes: as for B1
As for B12, in assay [3], the koff was found to be 0.00029 s⁻¹.

B13: 1C2 Fab (Fab, V domains shown)
VH: ELQVVESGGGLVQPGGSLRLSCAASGFTLSNYWMHWVRQAPRKGLEWVSTISTDNSRTYYADSVKGRFTISRDHAKNTLILQMNSLKSEDTAVYYCIRGSDYEHWGQGTQVTVSS
VL: QTVVTQEPSLSVSPGGTVTLTCGLSSGSVTTTNYPGWFQQTPGQAPRTLIYSTSSRHSGVPSRFSGSISGNKAALTITGAQPEDEADYYCALEEIGSYTYMFGGGTHLTVLG
notes: as for B1
Consider B13, for which, in assay [3], the koff worked out at 0.00032 s⁻¹.

B14: 5F4 Fab (Fab, V domains shown)
VH: EVQVQESGGGLVHPGGSLKLSCAASGFTFDTYAMSWVRQAPGKGLEWVSAISWSGGETFYAESMKGRFTISRNNAKNTLYLQMNSLKSEDTAVYYCARGMGLAEGLTDWGQGTQVTVSS
VL: QAVVTHPPSLSASPGSSVRLTCTLISGDNIGGYDISWYQQKTGSPPRYLLYYYSDSYKHQSSGVPSRFSGSKDASANAGLLLISGLQSEDEADYYCSAYKSGSYKAPVFGGGTHLTVLG
notes: as for B1
Consider B14, for which, in assay [3], the koff was found to be 0.0005 s⁻¹.
